From paper PMC12615762

Substrate: NCCC(=O)N[C@@H](Cc1cnc[nH]1)C(=O)O
Test: purified protein
Settings: SAM

B1: carnosine N-methyltransferase (CNMT, CARNMT1, C9orf41) (Homo sapiens) (protein)
chain: MQRRRRPPPPTSRLPEGCGGGGGGSEEVEVQFSAGRWGSAAAVSAAAAAATRSTEEEEERLEREHFWKIINAFRYYGTSMHERVNRTERQFRSLPANQQKLLPQFLLHLDKIRKCIDHNQEILLTIVNDCIHMFENKEYGEDGNGKIMPASTFDMDKLKSTLKQFVRDWSETGKAERDACYQPIIKEILKNFPKERWDPSKVNILVPGAGLGRLAWEIAMLGYACQGNEWSFFMLFSSNFVLNRCSEINKYKLYPWIHQFSNNRRSADQIRPIFFPDVDPHSLPPGSNFSMTAGDFQEIYSECNTWDCIATCFFIDTAHNVIDYIDTIWKILKPGGIWINLGPLLYHFENLANELSIELSYEDIKNVVLQYGFKVEVEKESVLSTYTVNDLSMMKYYYECVLFVVRKPQ
**Q.** For B1, which Km is on record?
**A.** 4.631 µM
